Data from article PMC7264359, “AcrIF9 tethers non-sequence specific dsDNA to the CRISPR RNA-guided surveillance complex” (Nature Communications, 2020).

B1: Cas7f (natural protein, Pseudomonas aeruginosa)
chain: SKPILSTASVLAFERKLDPSDALMSAGAWAQRDASQEWPAVTVREKSVRGTISNRLKTKDRDPAKLDASIQSPNLQTVDVANLPSDADTLKVRFTLRVLGGAGTPSACNDAAYRDKLLQTVATYVNDQGFAELARRYAHNLANARFLWRNRVGAEAVEVRINHIRQGEVARAWRFDALAIGLRDFKADAELDALAELIASGLSGSGHVLLEVVAFARIGDGQEVFPSQELILDKGDKKGQKSKTLYSVRDAAAIHSQKIGNALRTIDTWYPDEDGLGPIAVEPYGSVTSQGKAYRQPKQKLDFYTLLDNWVLRDEAPAVEQQHYVIANLIRGGVFGEAEEK
notes: Cas7f, backbone subunit of the type I-F Csy complex of Pseudomonas aeruginosa; Stood in the assay as a subunit of the Csy complex (six copies along the crRNA); also called Cas7.4f; Cas7.6f; source: E. coli BL21 (DE3), co-expressed with the other Csy genes, a synthetic CRISPR and AcrIF9; purified within the complex (Ni-NTA, Superdex 200)

Legend:
[1] = molecular target: type I-F CRISPR RNA-guided surveillance complex (Csy) (Pseudomonas aeruginosa) (UniProt Q02ML9); assay: cryo-EM structure; Csy–AcrIF9 complex co-expressed in E. coli and co-purified (Ni-NTA, Superdex 200 in 20 mM HEPES pH 7.5, 100 mM NaCl, 5% glycerol, 1 mM TCEP); nominal resolution ~3.9 Å
Chain of type I-F CRISPR RNA-guided surveillance complex (Csy) (Pseudomonas aeruginosa) (Q02ML9 whole entry, chain 1 of 3): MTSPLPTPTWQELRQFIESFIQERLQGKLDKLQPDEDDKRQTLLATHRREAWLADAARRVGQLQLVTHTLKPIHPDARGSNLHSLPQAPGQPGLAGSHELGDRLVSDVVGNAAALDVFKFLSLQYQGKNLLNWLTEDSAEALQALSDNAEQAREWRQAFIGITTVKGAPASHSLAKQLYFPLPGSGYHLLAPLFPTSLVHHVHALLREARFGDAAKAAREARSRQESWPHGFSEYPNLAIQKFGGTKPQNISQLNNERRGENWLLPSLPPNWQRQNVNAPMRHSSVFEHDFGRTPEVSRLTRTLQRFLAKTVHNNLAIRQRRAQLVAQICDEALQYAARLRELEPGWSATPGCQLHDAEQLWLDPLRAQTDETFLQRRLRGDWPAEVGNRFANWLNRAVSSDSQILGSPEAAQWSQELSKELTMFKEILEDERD
Chain of type I-F CRISPR RNA-guided surveillance complex (Csy) (Pseudomonas aeruginosa) (Q02MM0 whole entry, chain 2 of 3, further chain): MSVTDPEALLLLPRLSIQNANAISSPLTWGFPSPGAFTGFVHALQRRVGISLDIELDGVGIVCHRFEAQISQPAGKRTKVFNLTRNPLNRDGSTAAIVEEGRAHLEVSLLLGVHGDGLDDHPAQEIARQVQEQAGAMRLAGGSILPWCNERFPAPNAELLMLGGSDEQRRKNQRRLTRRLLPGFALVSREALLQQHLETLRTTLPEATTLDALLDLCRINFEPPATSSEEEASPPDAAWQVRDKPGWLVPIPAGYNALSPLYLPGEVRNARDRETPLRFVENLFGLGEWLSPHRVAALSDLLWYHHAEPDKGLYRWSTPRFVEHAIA
Chain of type I-F CRISPR RNA-guided surveillance complex (Csy) (Pseudomonas aeruginosa) (Q02MM2 whole entry, chain 4 of 3, further chain): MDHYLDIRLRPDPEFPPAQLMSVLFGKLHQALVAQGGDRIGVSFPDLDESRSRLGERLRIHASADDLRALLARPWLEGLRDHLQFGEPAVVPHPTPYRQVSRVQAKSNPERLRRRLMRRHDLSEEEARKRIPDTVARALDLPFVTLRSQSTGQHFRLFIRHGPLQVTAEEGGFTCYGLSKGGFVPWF

[2] = molecular target: the molecule itself; assay: as above

Molecule | stoichiometry N [1] | stoichiometry N [2]
anti-CRISPR protein IF9 (AcrIF9), co-expressed with Csy (natural protein) | 2 | 
B1 |  | 6
